B1: human CD146 fragment containing domain 4 and domain 5 (D4-D5, Gln336 to Leu519) (domain or fragment, UniProt P43121 336-519, looked up)
chain: QELLVNYVSDVRVSPAAPERQEGSSLTLTCEAESSQDLEFQWLREETGQVLERGPVLQLHDLKREAGGGYRCVASVPSIPGLNRTQLVNVAIFGPPWMAFKERKVWVKENMVLNLSCEASGHPRPTISWNVNGTASEQDQDPQRVLSTLNVLVTPELLETGVECTASNDLGKNTSILFLELVNL
modifications: two N-glycosylation sites on D4 and D5 seen in the electron density map
B2: HA98 (AA98 mAb mutant H13–112: heavy chain (I28K)/light chain (L51Y)) (antibody, V domains shown)
VH: EVQLLESGAELVRPGASVKLSCKTSGYKFTNYWIHWVKQRSGQGLEWIARIYPGTDITYYNEKFKGKATLTVDKSSSSAYMLLSSLKSEDSSVYFCARSGGYWYFDVWGAGTTVTVSS
VL: ELVMTQSPASLAVSLGQRATISCRASKSVSISGYSYMHWYQQKPGQPPKLYIYLASNLESGVPARFSGSGSGTDFTLNIHPVEEEDAATYYCQHSRELPYTFGGGTKLEIK

Key:
SEC = molecular target: the molecule itself; assay: SEC
[1] = molecular target: full-length CD146, wild type, with a FLAG tag or a Myc tag (human, UniProt P43121); assay: co-IP
full-length CD146, wild type, with a FLAG tag or a Myc tag, sequence (P43121 24-646): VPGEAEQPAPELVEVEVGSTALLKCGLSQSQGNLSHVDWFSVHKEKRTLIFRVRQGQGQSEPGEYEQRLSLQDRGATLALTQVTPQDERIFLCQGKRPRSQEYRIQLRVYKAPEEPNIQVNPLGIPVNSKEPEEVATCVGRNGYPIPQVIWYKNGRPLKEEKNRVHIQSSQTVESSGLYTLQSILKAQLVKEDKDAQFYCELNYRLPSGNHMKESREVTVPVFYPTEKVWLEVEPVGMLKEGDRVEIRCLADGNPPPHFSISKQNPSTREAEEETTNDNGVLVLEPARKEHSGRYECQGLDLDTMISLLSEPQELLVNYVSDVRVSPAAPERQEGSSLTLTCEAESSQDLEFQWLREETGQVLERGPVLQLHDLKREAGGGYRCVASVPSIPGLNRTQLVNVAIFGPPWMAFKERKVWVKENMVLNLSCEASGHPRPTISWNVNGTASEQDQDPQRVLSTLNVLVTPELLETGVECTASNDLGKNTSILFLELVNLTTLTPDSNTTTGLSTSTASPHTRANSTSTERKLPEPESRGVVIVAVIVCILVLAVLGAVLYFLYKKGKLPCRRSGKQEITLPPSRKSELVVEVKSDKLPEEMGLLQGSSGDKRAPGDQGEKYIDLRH

Binder | stoichiometry N (SEC) | binding result [1]
B1 | 2 | –
B2 | – | binds

— publication PMC8093899 (iScience, 2021)
